What was measured:
Test in all cases: cell-based or functional assay
[1] = biological target: Glycoprotein VI, GPVI^b allele protein (PEALN), on platelets of 'bb' homozygous donors (human) (UniProt Q9HCN6)
[2] = biological target: Glycoprotein VI on human platelets of donors not sorted to one allele (random donors, 'ab' heterozygotes, or donors whose genotype is not stated) (human) (UniProt Q9HCN6)
[3] = biological target: Glycoprotein VI, GPVI^a allele protein (SKTQH), on platelets of 'aa' homozygous donors (human) (UniProt Q9HCN6)

platelet aggregation at a CRP concentration of 0.10 µg/ml (mean) [1]: 4.6%
% of platelets binding annexin V at CRP 10 µg/ml [2]: 10 to 30%
platelet aggregation at a CRP concentration of 0.10 µg/ml (mean) [3]: 71%
Substance: Collagen related peptide (CRP), triple-helical peptide containing a glycine-proline-hydroxyproline repeat motif
